The target of assay [1] is human proteasome α7 subunit (human) (UniProt P25788). Put plainly: AUC; sedimentation velocity, α7 alone, 150 mM potassium phosphate pH 7.4, 25,000 rpm, c(s) analysis in SEDFIT.
For assay [2] the target is unchanged. Put plainly: AUC; sedimentation velocity, mixture of α7 and α6 at 1:4 molar ratio (α7 tetradecamer to α6 monomer), 150 mM potassium phosphate pH 7.4, 25,000 rpm.
For assay [3] the target is unchanged. Put plainly: native MS; α7 (2 μM tetradecamer) mixed with α6 (0.5, 1, 2, 4 and 8 μM monomer) at pH 7.5, incubated at 20 °C for 1 h, nanoflow ESI under non-denaturing conditions.
Assay [4] shares this target. Put plainly: native MS; α7 alone, 28 μM monomer, 10 mM ammonium acetate pH 6.8, nanoflow ESI under non-denaturing conditions.
Assay [5] deals with human proteasome α6 subunit, short isoform (human) (UniProt P25786). Put plainly: AUC; sedimentation velocity, α6 alone, 150 mM potassium phosphate pH 7.4, 55,000 rpm, c(s) analysis in SEDFIT.
Assay [6] shares this target. Put plainly: native MS; α6 alone at 5, 10 and 20 μM monomer, 150 mM ammonium acetate pH 7.5, nanoflow ESI under non-denaturing conditions.

Regarding “human proteasome α7 subunit (from UniProt P25788 1-255) (natural protein)”, the stoichiometry N (as a rule, the number of molecules, sites or subunits per partner or assembly) stood at 14 in assay [1], 7 in assay [2], 7 in assay [3] and 14 in assay [4].
Consider “human proteasome α6 subunit, short isoform (from UniProt P25786 1-263) (natural protein)”, for which the stoichiometry N in assay [5] is 2; in assay [6] it was 2; in assay [2], 7 α7 per α6; in assay [3], 7 α7 per α6.
